Patent publication US20250136711A1 (SHANGHAI BIOTROY BIOTECHNIQUE, published 2025)

Key:
SEMG2 (human) = SEMG2 (human) (UniProt Q02383); experiment: ELISA; negative control
[1] = molecular target: T1, SEMG1 recombinant protein (semenogelin-1) (human, UniProt P04279 24-462, limits assumed); experiment: ELISA; SEMG1 coated, antibody in 3-fold dilution series, goat anti-mouse HRP
T1 construct: also called full-length SEMG1
T1 sequence (looked up): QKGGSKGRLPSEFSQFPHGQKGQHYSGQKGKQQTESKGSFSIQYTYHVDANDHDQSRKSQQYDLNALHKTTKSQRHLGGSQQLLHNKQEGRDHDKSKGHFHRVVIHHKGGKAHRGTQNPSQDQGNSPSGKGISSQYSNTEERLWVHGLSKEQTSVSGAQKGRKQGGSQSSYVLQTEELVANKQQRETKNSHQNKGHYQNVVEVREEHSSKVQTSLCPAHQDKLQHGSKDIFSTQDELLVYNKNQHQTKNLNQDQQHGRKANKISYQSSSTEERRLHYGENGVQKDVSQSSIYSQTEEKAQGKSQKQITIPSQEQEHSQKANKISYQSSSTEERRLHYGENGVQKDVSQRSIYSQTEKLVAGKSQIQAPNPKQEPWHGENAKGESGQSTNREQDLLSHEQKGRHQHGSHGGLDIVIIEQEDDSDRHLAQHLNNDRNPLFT
Experimental: (§1) In order to identify whether the screened monoclonal antibodies with neutralizing effect can bind to SEMG1 and SEMG2 proteins, we coated SEMG2 protein diluted in carbonate buffer (Solarbio, Beijing, China) to a final concentration of 1 μg/mL on a dedicated ELISA plate (costar, ME, USA), and the binding of 1 μg/mL mouse hybridoma antibody to SEMG2 was initially tested. According to the determination outcome, the binding and binding strength between SEMG1 or SEMG2 and the purified mouse monoclonal antibody were further analyzed by ELISA experiment, and an irrelevant mouse monoclonal antibody was taken as a negative control. Specifically, a special plate for ELISA (costar, ME, USA) was used. First, different concentrations of SEMG1 or SEMG2 recombinant proteins were dissolved in 100 μL of carbonate coating buffer (Solarbio, Beijing, China) to 2 μg/mL to coat the plate, and the negative control was coated with 100 μL of coating buffer without protein. The plates were coated overnight at 4° C. […] After washing with PBST, color developing solution (Sangon, Shanghai, China) was used for color development, 100 μL per well, the plate was placed in an incubator for 5-30 minutes, and adding 50 μL of stop solution (Sangon, Shanghai, China) to stop the reaction, and then the plate was placed in a microplate reader (Thermo Fisher, MA, USA) for chromogenic reading at 450 nm.

[2] = molecular target: T2, S1-26 synthetic polypeptide of SEMG1 (human); experiment: ELISA on coated peptide; antibody at 2.5 ug/mL; positive if OD ratio to blank >3
T2 construct: also called SEMG1-26
T2 peptide: KDIFSTQDELLVYNK
Experimental: ⅓ overlapping peptide sequences were designed, and a peptide library consisting of 45 peptides (GenScript, Nanjing) was synthesized. Peptide matrix was prepared by using a polypeptide-coated 96-well plate (Costar, Corning), and the selected monoclonal antibody was used as the primary antibody for ELISA binding test, and SEMG1 coating was set as a positive control, and BSA coating was set as a control. The ELISA procedure was performed routinely, as described in Example 2 above. For the coated polypeptide well with OD_{experimental group}/OD_{blank group}>3, it was determined as a positive reaction, which was the corresponding antibody-bound polypeptide sequence.

[3] = molecular target: T3, SEMG2 recombinant protein (semenogelin-2) (human, UniProt Q02383 24-582, limits assumed); experiment: ELISA; SEMG2 coated, antibody in 3-fold dilution series, goat anti-mouse HRP
T3 construct: also called SMEG2
T3 sequence (looked up): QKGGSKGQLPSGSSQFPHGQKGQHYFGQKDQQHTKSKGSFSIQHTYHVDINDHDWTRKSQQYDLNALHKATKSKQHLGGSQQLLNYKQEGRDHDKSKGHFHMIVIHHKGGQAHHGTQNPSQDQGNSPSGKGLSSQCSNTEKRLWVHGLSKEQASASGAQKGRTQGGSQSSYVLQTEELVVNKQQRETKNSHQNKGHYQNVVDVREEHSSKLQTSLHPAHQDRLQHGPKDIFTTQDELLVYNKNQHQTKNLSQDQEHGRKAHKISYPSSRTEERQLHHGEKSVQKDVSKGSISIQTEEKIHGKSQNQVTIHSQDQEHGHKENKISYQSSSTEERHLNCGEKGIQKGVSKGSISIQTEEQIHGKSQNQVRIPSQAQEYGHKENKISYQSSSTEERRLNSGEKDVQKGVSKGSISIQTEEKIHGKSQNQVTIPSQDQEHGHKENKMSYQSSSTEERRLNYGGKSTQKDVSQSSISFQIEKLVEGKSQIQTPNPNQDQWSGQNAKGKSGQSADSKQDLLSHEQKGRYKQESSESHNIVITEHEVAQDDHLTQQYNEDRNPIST
Experimental: as §1

Molecule: mIgG1
- EC50 (SEMG2 (human)): 4.24 nM

B1: 25-E10-F8-B5 (antibody, mouse IgG1, V domains shown)
VH: QVQLQQPGAELVKPGASVKMSCKASGYTFTSYNMHWVKQTPGQGLEWIGAIYPGNGDTSYNQKFKGKATLTADKSSSTAYMQLSSLTSEDSAVYYCASAMDYWGQGTSVTVSS
VL: SIVMTQTPLSLPVSLGDQASISCRSSQSLVHSNGNTYLQWYLQKPGQSPKLLIYKVSNRFSGVPDRFSGSGSGTDFTLKISRVEAEDLGVYFCSQSKHVPRTFGGGTKLEIK
notes: Mouse hybridoma monoclonal antibody; The V regions were re-cloned with murine IgG1 and murine kappa constant regions to verify activity
- EC50 [1]: 1.26 nM
- binding result [2]: binds
- EC50 [3]: 1.69 nM

B2: 33-B5-C1-F5 (antibody, mouse IgG1, V domains shown)
VH: EVQLQESGAELVKPRASVKMSCKASGYTFSSYNMHWIRQTPEQGLEWIGAIYPGTGDTSYNQKFKGKATLTADKSSSTAYMQLSSLTSEDSAVYYCASAMDYWGQGTSVTVSS
VL: DVVLTQTPLSLPVSLGDQASISCRSSQSLLHSNGNTYLQWFLQRSGQSPKLLIYKVSNRFYGVPDRFSGSGSGTDFTLKISRVEAEDLGVYFCSQSIDVPRTFGGGTKLEIK
notes: as for B1
- EC50 [1]: 3.67 nM
- binding result [2]: binds
- EC50 [3]: 2.39 nM
